# Laboratory results as given in the supplement of paper PMC12764529.
# ± gives the half width of the 95% confidence interval.
# Columns and labels:
# [1] = folding stability dG unfold from trypsin proteolysis; higher = more stable
# In short: (§1)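 Digests were run with trypsin and chymotrypsin at 11 concentrations in threefold dilutions, plus a no-protease condition, on designed mini-proteins in a PA-tagged cDNA display construct. The mini-proteins were under 80 residues, had no cysteine, and were kept only when AlphaFold2 dimer inter-PAE was above 15. After sequencing, Bayesian fitting of the counts gave K50, from which unfolding free energy was derived against a sequence-predicted unfolded-state K50 and a shared folded-state K50, per protease or combined.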
# [2] = folding stability dG unfold from chymotrypsin proteolysis; higher = more stable
# In short: as §1
# [3] = folding stability dG unfold (combined trypsin and chymotrypsin); higher = more stable
# In short: as §1
Sequence,folding stability dG unfold [1] [kcal/mol],folding stability dG unfold [2] [kcal/mol],folding stability dG unfold [3] [kcal/mol]
SAGGSAGGSMIKVKITYPNGEEKTIEIEAETEEEAEEAAKKLAEELGKDVKVEVEKVSPEELKSAGGSAGGS [r12_385_TrROS_Hall],1.64 ± 0.075,1.22 ± 0.034,1.45 ± 0.073
ITITYDKETGELTVTLSVEIEREDGYLVRVSVTIRINPNGEIKIEKKIEVIKLPPAEVKLTDEELEKLKKES [r1_4_TrROS_Hall],2.41 ± 0.1,2.51 ± 0.11,2.49 ± 0.27
SAGGSDLKVQVNKDGNTIRIQLPDGKPIFEIPFYRYDPDDGKPLEPWTIRMRLDPDGNIKIEEITPSAGGSA [r2_362_TrROS],1.77 ± 0.044,1.45 ± 0.14,1.68 ± 0.15
SAGGMKITITYDKETKTITVKITYPDGTTEELTIEVPPEKKTPEEIAEELKKLIEERFGKKVEIEIVSAGGS [r8_166_TrROS_Hall],3.82 ± 0.26,2.45 ± 0.18,2.98 ± 0.15
SAGGKKIKVEVKIEIKIEKNPDGSYTIRIKITVKVTNENGEKFEVKVELEITLSEEELEKLKKLLEELSAGG [r13_412_TrROS_Hall],3.07 ± 0.24,3.75 ± 0.46,3.5 ± 0.39
SAGGSAGGSAGGMTLEIEINGLKVRIEFDEETKELRIEVEPAPPPVVVYEKEKLEEEEESAGGSAGGSAGGS [r10_724_TrROS_Hall],1.56 ± 0.078,1.52 ± 0.05,1.46 ± 0.18
SAGGSAGGSKTITVRVKITLPNGETIEVEAEITVRPDGSITITLPDGSTITLPPGAKVEIEPVSAGGSAGGS [r20_227_TrROS_Hall],2.99 ± 0.12,2.51 ± 0.17,2.85 ± 0.26
SAGGSAGGSDVEVEEVDVEIEVNGKKFKVKIYRNKKDKNRYYIFFEDTGKVFEIDKNGNIRPLSAGGSAGGS [r12_580_TrROS_Hall],2.74 ± 0.1,3.49 ± 0.044,3.21 ± 0.064
SAGGKKTFKVTLTLELKVERDEETGELKTETLTLTLTIEAESEEEAEKALKELLEKLELSPELKKALSAGGS [r16_40_TrROS_Hall],2.17 ± 0.082,3.76 ± 0.064,3.4 ± 0.097
SAGGSAGGSASMTVVVEREEITRRDPSSDELFEEEVVRATTTEKDGVIETTTLPEEEWEKLSSAGGSAGGSA [r18_406_JUSTAS],0.348 ± 0.056,-0.521 ± 0.2,-0.0202 ± 0.32
SAGGSAGGSAGGMIKTKDGKVLEFKSLEEALAALKELGVDEVEIEELEPEGVVKVKVKPSAGGSAGGSAGGS [r10_1191_TrROS_Hall],0.301 ± 0.03,1.34 ± 0.039,1.11 ± 0.11
SAGGLSLEELADELAQENGWEITEAEPIEFTPNTIRFEVTVRMPDGKRRTIEIEIEIPPPKPPDQPKSAGGS [r8_309_TrROS],1.15 ± 0.067,1.63 ± 0.058,1.39 ± 0.13
SAGGSAGGSAGKFKLKIKEVHWRENPNGYEQVKVEIKIPGEEKKIWFPPGMSIDQILDQLSAGGSAGGSAGG [r11_1056_TrROS],0.415 ± 0.081,1.13 ± 0.18,0.732 ± 0.12
SAGPEPVIRLAREHLERGEVLRITLTGRSGVPRTFLLRPEDILWFFDNLPDPSDIASVDIETYPLGYPPSAG [r5_956_TrMRF],2.17 ± 0.028,3.352 ± 0.016,3.01 ± 0.078
SAGGSAGGSAANVTREPRFDPSTNLVRTLVRFPDGSVREEILEITKNPDGTLTYKRFERPPSAGGSAGGSAG [r3_474_JUSTAS],0.383 ± 0.12,1.59 ± 0.18,1.19 ± 0.14
SAGRLTTELGDVKAEVFRIPNLNLSLVVYEYPTSVRTLLATEHGDTVTIHPLTETPLPLPPLSDLKSLSAGG [r19_328_TrMRF],0.0381 ± 0.068,-0.064 ± 0.11,0.0233 ± 0.1
SAGGSAEEEVETVTLTVTVTVPPAPEVEVVSVEVERLPDGTLRVRAVVRLKDVPDRFVEVELTIRPSAGGSA [r15_627_TrROS_Hall],3.41 ± 0.12,2.95 ± 0.042,3.18 ± 0.16
SAGGSAGGMKVKIKLGPGEEVEIEVVEDKETNKLYFKIVNKKTKKVYVFETLEEAKNMSLEELLSAGGSAGG [r6_739_TrROS_Hall],1.78 ± 0.065,3.73 ± 0.07,3.22 ± 0.12
SAGMAVVKITLEYEDGRKEEFILFVESENPEEVLEEAEEALAELIEELDVPLKSATIEIYDIPPDEELSAGG [r19_335_TrMRF],2.12 ± 0.11,3.39 ± 0.09,3 ± 0.1
SDWHYIQIPFEITFKAPPEQARQFVEDLAENLGITDINVDNIEYDPNNGEVKVKVSISIMIPPPPPPEDDSA [r9_918_TrROS],2.36 ± 0.15,3.36 ± 0.12,2.73 ± 0.2
SAGMTAEELAEELAKELEVEVTLENGEKRRVRVEVKVERLPDGTLLLTAKVENEETGETFEIKIEIKLESAG [r5_397_TrROS_Hall],2.9 ± 0.13,4.3 ± 0.37,3.67 ± 0.33
